Experimental data from the DeepSol protein solubility set.

Experiment: soluble on expression in E. coli; label from the status in PepcDB or PDB records

Sequence	soluble on expression in E. coli
APARPAHPLDPLSTAEIKAATNTVKSYFAGKKISFNTVTLREPARKAYIQWKEQGGPLPPRLAYYVILEAGKPGVKEGLVDLASLSVIETRALETVQPILTVEDLCSTEEVIRNDPAVIEQCVLSGIPANEMHKVYCDPWTIGYDERWGTGKRLQQALVYYRSDEDDSQYSHPLDFCPIVDTEEKKVIFIDIPNRRRKVSKHKHANFYPKHMIEKVGAMRPEAPPINVTQPEGVSFKMTGNVMEWSNFKFHIGFNYREGIVLSDVSYNDHGNVRPIFHRISLSEMIVPYGSPEFPHQRKHALDIGEYGAGYMTNPLSLGCDCKGVIHYLDAHFSDRAGDPITVKNAVCIHEEDDGLLFKHSDFRDNFATSLVTRATKLVVSQIFTAANYEYCLYWVFMQDGAIRLDIRLTGILNTYILGDDEEAGPWGTRVYPNVNAHNHQHLFSLRIDPRIDGDGNSAAACDAKSSPYPLGSPENMYGNAFYSEKTTFKTVKDSLTNYESATGRSWDIFNPNKVNPYSGKPPSYKLVSTQCPPLLAKEGSLVAKRAPWASHSVNVVPYKDNRLYPSGDHVPQWSGDGVRGMREWIGDGSENIDNTDILFFHTFGITHFPAPEDFPLMPAEPITLMLRPRHFFTENPGLDIQPSYAMTTSEAKRAV	soluble
MGHHHHHHSHMPTDNDLKAAILELLRDLDVLLVAHFYQKDEIVELAHYTGDSLELAKIASQSDKNLIVFCGVHFMGESVKALAFDKQVIMPKLSCCSMARMIDSHYYDRSVHLLKECGVKEFYPITYINSNAEVKAKVAKDDGVVCTSRNASKIFNHALKQNKKIFFLPDKCLGENLALENGLKSAILGANSQEEIKNADVVCYNGFCSVHQLFKLEDIEFYRQKYPDILIAVHPECEPSVVSNADFSGSTSQIIEFVEKLSPNQKVAIGTESHLVNRLKAKRHHQNTFILSSTLALCPTMNETTLKDLFEVLKAYKNHRAYNTIELKDEVARLAKLALTKMMELS	not soluble
MDRNSLSNSLKTCYKYLNQTSRSFAAVIQALDGEMRNAVCIFYLVLRALDTLEDDMTISVEKKVPLLHNFHSFLYQPDWRFMESKEKDRQVLEDFPTISLEFRNLAEKYQTVIADICRRMGIGMAEFLDKHVTSEQEWDKYCHYVAGLVGIGLSRLFSASEFEDPLVGEDTERANSMGLFLQKTNIIRDYLEDQQGGREFWPQEVWSRYVKKLGDFAKPENIDLAVQCLNELITNALHHIPDVITYLSRLRNQSVFNFCAIPQVMAIATLAACYNNQQVFKGAVKIRKGQAVTLMMDATNMPAVKAIIYQYMEEIYHRIPDSDPSSSKTRQIISTIRTQN	soluble
MQSAIVLGGGMIGVSAALHLRQRGWTVTLVDRREPGRETSYGNAGMIQAEAVRPYPMPRDLASLLKIATGRTNDVRYSLSSLHLHIEPLLRYWWHSAPKRHREAIDAWARLIAYATAEHDILIREAHADNLIRRAGYRALYRDAAALDLSIKAAEEDQHEFGVNFRVLSGSELAKAEPVLRDDLPGAIHWLDTWTVSDPGALVTAYAELFERLGGRIVLGDAQSLQQTAAGWSVDTDQGRIDAATAVVTLGPWSPDLLYKFGYRIPLVRKRGYHMHYSGGASLDLPLIDKAGGYAMGPMAKGIRITTGAELTSPDALATPVQLASAEASARELIDLGKRVEPDPWFGTRPCTPDMLPVLGPAPLHPGLWMNFGHGHQGFTLGPATGRLLAEMMSGETPAIDPTPYRPERFLEHHHHHH	soluble
MFQNLLENSKKFWIVLEPYGKFKKMLLRDLRGETHRGETRRGETRRGETHRGETHRGETHRGETHRGETHRGETHRGETYRGETHRGETHRGETHRGKTQNFGGKFKFSVKNILAGNLNFLKKIFWREI	not soluble
MGSDKIHHHHHHMHSPRELALLYRQGKNITQLMRDERGLIHNSNEIIEISYDLQAGSYIESMGEAWMAEHNAEYCQQLAKVILSLCNPDSILEAGIGEATTLADLLPHLSKKISSYGFDISWSRVAYGKQWLQQQGISNTVLCTGNLCHIPFADNAVELVYTSHSLEPNGGNEAAILKELYRVTSKFLVLLEPGYELANKDAKHRMEQHGYCRNIKSIAQSLGYRILLHEFFPSSVNPLNPTVITIIEKPPSFEPAKHILACPKYKTPLENIENMLFSPESLMVYPIVGGIPCLGINNGLVASKFRELISKG	not soluble
MGSDKIHHHHHHMTDCADAQGLIAKITGVCFNHQLNIIKNSEFVDNAQGRFFMRTELEGHFHCEQLLQDLRQVLPAQNHMTLVSAGKKRIVILVTKEAHCLGDLLMKAYYGGLNVEIAAVVGNHDVLRELVEKFDIPFHLVSHEGLDRIQHEQALLAAVSQYSPDYLVLAKYMRVLTPDFVAEYPNRILNIHHSFLPAFIGAAPYRQAWERGVKIIGATAHFVNNCLDEGPIIKQDVIPVDHSYSALEMAKAGRDVEKSVLSKALQLVLNEQVVVYGNKTIVF	not soluble
SASRGYLHHLLTAEGAWEEFVSKAKLPRDRAVALHKALRDLTALLAIAERGRSRKGWKGKEKFVKAFPCLKADLEEHISQLYALADHAEELHRGCTVSNMVADSFSVASDILNLFGLFLAPESAEGSLVLSAAGLGLGVAATVTNVATSIMKETSRVLDGVEAGHHGSTAMDILEEAGTSVARIASEIPQATRDITRDLEALEQHMNALSLVRANPRLEEDARALINAGSIPAQRAKQVRASLKGTPLAMSKEDRIRSATTTGVTLLRDVGSLVNESKQLYEGSASESAAALRKLAQELEEKLGELMKFYETI	not soluble
SAFQKAASLLGAPIGHDFCVISLSDLMTPWERIERRILAAAQADFVTAVYNPKSDGRYWQIYRLREIFLREGRSPETPVGYVRQAGREEQEIHITTLAAFDPETVDMFTVVLIGNSQTY	not soluble
MGHHHHHHSHMVLLHVKRGDESQFLLQAPGSTELEELTVQVARVYNGRLKVQRLCSEMEELAEHGIFLPPNMQGLTDDQIEELKLKDEWGEKCVPSGGAVFKKDDIGRRNGQAPNEKMKQVLKKTIEEAKAIISKKQVEAGVCVTMEMVKDALDQLRGAVMIVYPMGLPPYDPIRMEFENKEDLSGTQAGLNVIKEAEAQLWWAAKELRRTKKLSDYVGKNEKTKIIAKIQQRGQGAPAREPIISSEEQKQLMLYYHRRQEELKRLEENDDDAYLNSPWADNTALKRHFHGVKDIKWRPR	not soluble
MTKKLIKIWRKEMLALMNEDADWYRNEDTERFKRIQELARKIETANTRQFSSHISKERFEAYQKMGLQFKEIAEEFHITTTALQQWRKDNGYPIYNKNNRK	not soluble
MASDYKDDDDKRRRGMEGAKLSAVRIAVREAPYRQFLGRREPSVVQFPPWSDGKSLIVDQNEFHFDHAFPATISQDEMYQALILPLVDKLLEGFQCTALAYGQTGTGKSYSMGMTPPGEILPEHLGILPRALGDIFERVTARQENNKDAIQVYASFIEIYNEKPFDLLGSTPHMPMVAARCQRCTCLPLHSQADLHHILELGTRNRRVRPTNMNSNSSRSHAIVTIHVKSKTHHSRMNIVDLAGSEGVRRTGHEGVARQEGVNINLGLLSINKVVMSMAAGHTVIPYRDSVLTTVLQASLTAQSYLTFLACISPHQCDLSETLSTLRFGTSAKAAALEHHHHHH	soluble
ALSGGFIKGFAHLGVMQALLEHDIKPDIISGVSAGALAGVFYADGNEPHQVIEYFSGHKFQDLTKLVIPKKGLFDLCEFIDFLHTNLKAKNLEELQIPLIITATDLDHGRMVHFHRGSIAERVAASCCMPVMFAPVNIDGTNYVDGGLMMNLPVSTLRRICDKVVAVNVSPIMAQDYKMNIVSIAMRSFHFMFRANTFPEREKCDLLIEPYNLYGYSNTELEKAEEIFEQGYKIAND	not soluble
GMSSKEEILSILEAFASTERMGSFFLDNATADFLFIRPSGNPLDAKGFENMWSSGDLVLESAEITKVHKFELLGSNAAICVFTLGSKFTYKGTQNDDLPTVTSIFKKIDEKWKVAWMQRSSGQSDMTLWNE	soluble
MNYGFVKVAAAVPHVKVADCKFNVERIESQIAIAEGKGVQIIVFPEMSITGYTCGDLFGQQILLEEAEMGLMQILNNTRQLDIISIVGMPVVVNSTVINAAVVIQKGKVLGVAAKTYLPNYKEFYEQRWFTSALQLTEDTVRLCGQIVPIGANLLFETSDTTFGIEICEDLWATIPPSSSLALQGAEIIFNMSADNEGIGKHHYLCSLISQQSARCIAGYVFSSCGFGESTTDVVFAGNGLIYENGSLLARSKRFCMEEQLIISEIDVERIRAERRINTTFAASQGNPGDKKAISVATEFVNSKELTLTRDFNSHPFVPQGAELDEHCEEVFSIQIAGLAQRLVHTKAKTAVVGISGGLDSTLALLVCVKTFDKLGLPRKDILGVTMPGFGTTDRTYNNAIDLMKSLGISIREISIQDACIQHFKDIDHDINVHDVTYENSQARERTQILMDIANQTWGMVVGTGDLSELALGWATYNGDHMSMYGVNGSIPKTLVKYLVQWVAENDMDEDAKATLLDIVDTPISPELIPADENGEIKQKTEDLVGPYELHDFFLYYFLRFGFRPSKIYYLANIAFKDVYDKETIKKWLSTFFRRFFNQQFKRSCLPDGPKVGSISISPRGDWRMPSDASSTIWLKEIEDLLEHHHHHH	not soluble
LPAMEIECRITGTLNGVEFELVGGGEGTPEQGRMTNKMKSTKGALTFSPYLLSHVMGYGFYHFGTYPSGYENPFLHAINNGGYTNTRIEKYEDGGVLHVSFSYRYEAGRVIGDFKVMGTGFPEDSVIFTDKIIRSNATVEHLHPMGDNDLDGSFTRTFSLRDGGYYSSVVDSHMHFKSAIHPSILQNGGPMFAFRRVEEDHSNTELGIVEYQHAFKTPD	soluble
MAELISKEGNKVEFKVSVPAAEVNRAYDQVWAGLARDVRVPGFRPGKAPRKVIENRVGKGYVESQVRDRLLETHYSQGLRELGLNLVDATVDPQDVQSGQAFEFTVKGETYP	soluble
MSLSPEDAIVIILSDDDTIRSALDANIHLQGRRSHLCKSRTDFLISPEADLVGCVVLDARLPDLTASDLTHLICAHAIRCPVIVLTGHGGQAMTVNATKFHVSFIPQPFDLNALAEKIHAAIRTTMEIGRLEGNYRTLTPREREVMKFVAEGLLNKQVAFKLNISEITVKAHRGQVMRKMNARTLPHLVNMAAKLDIGVAFLHEGHHHHHH	soluble
RKPLQEPCTIFLIANGDLINPASRLLIPRKTLNQWDHVLQMVTEKITLRSGAVHRLYTLEGKLVESGAELENGQFYVAVGRDKFKKLPYGELLFD	soluble
